According to the RNAGym collection of RNA variant scans (doi:10.1093/nar/gkz1192):

B1: CPEB3 Ribozyme (parent)
chain: UAACAGGGGGCCACAGCAGAAGCGUUCACGUCGCAGCCCCUGUCAGAUUCUGGUGAAUCUGCGAAUUCUGCUGUAUAUCUC

Variants of: B1
Assay: self-cleavage, relative activity (ratio to wild type); higher = more cleavage; in vitro, sequencing
Procedure, shortened: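 Relative activity compares each variant's cleaved/total read fraction with that of the unmutated ribozyme. To get these fractions, barcoded CPEB3 ribozyme libraries from rounds of error-prone PCR were transcribed with T7 RNA polymerase for 5 hours at 37°C and then given 15 min of DNase I treatment before EDTA was added. The RNAs were reverse transcribed with template switching and sequenced on Illumina, and DNA sequencing linked barcodes to variants. A minimum of 5 reads applied, and three batches were averaged.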
U25A A64U showed a self-cleavage of 0.19. With G24C G61A the self-cleavage was 0.18. Variant G24A A28U has a self-cleavage of 0.14. For G24A A28G, the self-cleavage was 0.25. For C23U U58A, the self-cleavage was 0.34. C23A U66A showed a self-cleavage of 0.1. Work on C23A U69C yielded a self-cleavage of 0.12. Work on G24A G63A yielded a self-cleavage of 0.37. With G24A G63C the self-cleavage was 0.16. U25A A45G gave a self-cleavage of 0.27. U25A A45U showed a self-cleavage of 0.19. For U25A A45C, the self-cleavage was 0.6. Variant C23U A64U has a self-cleavage of 0.16. Work on C23U A64C yielded a self-cleavage of 0.09. Work on C23U A64G yielded a self-cleavage of 0.26. U25A A56U showed a self-cleavage of 0.27. With U25A A56G the self-cleavage was 0.27. For G24A G55A, the self-cleavage was 0.1. Variant G24C A75U has a self-cleavage of 0.33. Work on G24C U80C yielded a self-cleavage of 0.36. For C23G U43C, the self-cleavage was 0.25. For G24A C81A, the self-cleavage was 0.16. Variant G24A C37A has a self-cleavage of 0.17. With G24U U67A the self-cleavage was 0.16. In the case of G24U U67C, the self-cleavage is reported as 0.1. Work on C23A U60G yielded a self-cleavage of 0.06. Work on C23A U60A yielded a self-cleavage of 0.19. Work on C23A U60C yielded a self-cleavage of 0.33. Work on G24A U66C yielded a self-cleavage of 0.39. G24A U66A showed a self-cleavage of 0.3. For C23G U78C, the self-cleavage was 0.28. For C23G U78A, the self-cleavage was 0.32. In the case of C23U C37U, the self-cleavage is reported as 0.2. With G24A U72C the self-cleavage was 0.25. Work on G24A U72A yielded a self-cleavage of 0.29. Work on G24C A57G yielded a self-cleavage of 0.11. Work on G24C A57U yielded a self-cleavage of 0.11. For G24C U60A, the self-cleavage was 0.45. C23U A47G gave a self-cleavage of 0.18. C23U A47U gave a self-cleavage of 0.2. For U25A A47U, the self-cleavage was 0.27. U25A A47G showed a self-cleavage of 0.33. In the case of C23G U54C, the self-cleavage is reported as 0.28. For C23G U54A, the self-cleavage was 0.26. For C23G U54G, the self-cleavage was 0.26. For U25A A35U, the self-cleavage was 0.29. Variant U25A A35C has a self-cleavage of 0.2. Variant U25A A35G has a self-cleavage of 0.31. Work on C23A U72A yielded a self-cleavage of 0.08. With C23A U72C the self-cleavage was 0.41. Work on C23U U80G yielded a self-cleavage of 0.26. In the case of C23U U80A, the self-cleavage is reported as 0.28. Work on C23U A35U yielded a self-cleavage of 0.16. In the case of C23U A35G, the self-cleavage is reported as 0.95. Variant C23G A28G has a self-cleavage of 0.17. C23G A28U gave a self-cleavage of 0.23. Work on G24U U54C yielded a self-cleavage of 0.17. In the case of G24A U60C, the self-cleavage is reported as 0.24. G24A U60G showed a self-cleavage of 0.13. In the case of G24A U60A, the self-cleavage is reported as 0.28. Work on C23U U67G yielded a self-cleavage of 0.38. For C23U U67A, the self-cleavage was 0.16. C23U U67C showed a self-cleavage of 0.28. C23G A56G gave a self-cleavage of 0.23. C23G A56U showed a self-cleavage of 0.4. C23A U67C gave a self-cleavage of 0.17. For C23A U67A, the self-cleavage was 0.16. In the case of C23U G30A, the self-cleavage is reported as 0.12. C23U U74A gave a self-cleavage of 0.58. Variant C23U U74C has a self-cleavage of 0.76. Work on U25A A75G yielded a self-cleavage of 0.23. For C23U G61C, the self-cleavage was 0.11. C23U G61A gave a self-cleavage of 0.25. With C23G U69A the self-cleavage was 0.12. C23G U69C gave a self-cleavage of 0.08. In the case of G24C A45G, the self-cleavage is reported as 0.21. For G24C A45U, the self-cleavage was 0.13. U25A A57U gave a self-cleavage of 0.18. In the case of U25A A57G, the self-cleavage is reported as 0.3. Work on G24U U76A yielded a self-cleavage of 0.4. G24U A77U showed a self-cleavage of 0.15. Variant G24A G42A has a self-cleavage of 0.12. C23G C39U gave a self-cleavage of 0.08. With C23U C39A the self-cleavage was 0.19. With C23U C39U the self-cleavage was 0.24. C23U G55A gave a self-cleavage of 0.24. Work on C23G U60C yielded a self-cleavage of 0.07. For C23G U60A, the self-cleavage was 0.19. Work on C23U U54C yielded a self-cleavage of 0.16. With C23U U54A the self-cleavage was 0.31. Variant C23U U54G has a self-cleavage of 0.31. G24U A47G showed a self-cleavage of 0.31. Work on C23U A28C yielded a self-cleavage of 0.43. For C23U A28U, the self-cleavage was 0.23. For C23U A28G, the self-cleavage was 0.26. Variant G24C A47G has a self-cleavage of 0.48. For C23G A77G, the self-cleavage was 0.67. Work on C23G A77U yielded a self-cleavage of 0.36. In the case of C23G A77C, the self-cleavage is reported as 0.27. For G24C C29A, the self-cleavage was 0.23. With G24C A35G the self-cleavage was 0.1. In the case of G24A G61C, the self-cleavage is reported as 0.09. G24A G61A showed a self-cleavage of 0.19. With C23U A57G the self-cleavage was 0.31. In the case of C23U A57U, the self-cleavage is reported as 0.19. In the case of C23G C62A, the self-cleavage is reported as 0.29. C23U U49G gave a self-cleavage of 0.41. Variant C23U U49C has a self-cleavage of 0.28. G24C A64G gave a self-cleavage of 0.45. Variant G24A U48C has a self-cleavage of 0.22. For C23G U80A, the self-cleavage was 0.47. Work on C23G U80C yielded a self-cleavage of 0.13. With C23G A65U the self-cleavage was 0.22. With G24U U58C the self-cleavage was 0.17. With G24A A75G the self-cleavage was 0.32. With G24A A75U the self-cleavage was 0.25. Variant C23U G52A has a self-cleavage of 0.57. Variant G24A U76C has a self-cleavage of 0.26. With C23U U31A the self-cleavage was 0.23. For C23U U31C, the self-cleavage was 0.22. G24A U54A showed a self-cleavage of 0.25. In the case of G24A U54G, the self-cleavage is reported as 0.15. G24A U54C gave a self-cleavage of 0.27. In the case of G24A U67A, the self-cleavage is reported as 0.18. Variant G24A U67C has a self-cleavage of 0.22. With G24U A45C the self-cleavage was 0.22. With G24U A45U the self-cleavage was 0.18. For G24A A47U, the self-cleavage was 0.21. Variant G24A A47G has a self-cleavage of 0.27. C23U G70A showed a self-cleavage of 0.17. With C23U U26A the self-cleavage was 0.24. With C23U U26C the self-cleavage was 0.2. Variant C23G U58C has a self-cleavage of 0.21. Work on G24A A56G yielded a self-cleavage of 0.13. Variant G24A A56U has a self-cleavage of 0.37. Variant G24U U49A has a self-cleavage of 0.23. Work on G24A U51C yielded a self-cleavage of 0.31. Variant G24A U51A has a self-cleavage of 0.15. With G24A U51G the self-cleavage was 0.11. C23U A56U gave a self-cleavage of 0.15. C23U A56G gave a self-cleavage of 0.31. G24A C68A gave a self-cleavage of 0.07. In the case of G24U A75G, the self-cleavage is reported as 0.08. In the case of G24C U48C, the self-cleavage is reported as 0.22. With G24A G46A the self-cleavage was 0.2. G24C A77G gave a self-cleavage of 0.3. For G24C A77U, the self-cleavage was 0.09. C23G A57G showed a self-cleavage of 0.16. Work on G24A U41C yielded a self-cleavage of 0.3. G24A U41G showed a self-cleavage of 0.12. With G24A U41A the self-cleavage was 0.21. U25A A28U showed a self-cleavage of 0.52. In the case of U25A A28G, the self-cleavage is reported as 0.28. U25A A28C gave a self-cleavage of 0.39. Work on G24C U72C yielded a self-cleavage of 0.15. With G24C U72A the self-cleavage was 0.19. In the case of G24C U72G, the self-cleavage is reported as 0.2. With G24U C44A the self-cleavage was 0.18. In the case of C23U U43C, the self-cleavage is reported as 0.3. With C23U U43G the self-cleavage was 0.11. With C23U U43A the self-cleavage was 0.34. Work on C23G U26C yielded a self-cleavage of 0.25. Work on C23G U26A yielded a self-cleavage of 0.1. Work on G24A A35G yielded a self-cleavage of 0.38. G24A A35U gave a self-cleavage of 0.17. With C23G U41A the self-cleavage was 0.1. Work on C23G U41C yielded a self-cleavage of 0.21.
